Assay [1] deals with T1, Human GPA33 on GPA33+ colorectal cancer cell lines (Colo 205, LS 174T, SW 1222) (human, UniProt Q99795 22-319).
T1 construct: Endogenous GPA33 on human colorectal cancer cell lines; also called surface human GPA33; GPA33+ tumor cell lines
T1 sequence: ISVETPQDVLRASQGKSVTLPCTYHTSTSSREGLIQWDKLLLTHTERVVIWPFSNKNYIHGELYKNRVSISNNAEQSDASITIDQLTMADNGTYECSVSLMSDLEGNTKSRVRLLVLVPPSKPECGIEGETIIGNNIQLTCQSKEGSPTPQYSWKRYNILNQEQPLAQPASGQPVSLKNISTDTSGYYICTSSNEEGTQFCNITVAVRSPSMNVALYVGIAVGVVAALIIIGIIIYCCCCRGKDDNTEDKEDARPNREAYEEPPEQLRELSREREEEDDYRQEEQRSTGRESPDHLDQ
The assay is described as follows: FACS binding to Colo205 cells (GPA33+).

For assay [2], the target named is T2, Human GPA33 (recombinant protein, Novoprotein) (human, UniProt Q99795 22-235).
T2 construct: Bought recombinant protein immobilized on a CM5 chip; also called GPA33 antigen; tumor antigen GPA33
T2 sequence: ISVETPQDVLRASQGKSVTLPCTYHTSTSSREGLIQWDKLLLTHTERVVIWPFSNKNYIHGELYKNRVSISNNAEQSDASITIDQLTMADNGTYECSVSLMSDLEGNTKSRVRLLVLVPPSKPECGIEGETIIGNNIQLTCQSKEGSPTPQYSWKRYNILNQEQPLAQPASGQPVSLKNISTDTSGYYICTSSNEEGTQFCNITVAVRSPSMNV
The assay is described as follows: SPR (Biacore), human GPA33 immobilized on CM5 chip, two-state fit. The protocol:
(§1) SPR analysis. Human GPA33 (Novoprotein, Summit, NJ) was immobilized on CM5 chips. Five concentrations of 2-fold serially diluted huA33 IgG1 or huA33-BsAbs (starting at 20 nM) were flowed over the chip using a Biacore™ T100 system (GE Healthcare, Chicago, IL). Binding kinetics of huA33 were measured at 25° C. and binding kinetics of huA33-BsAbs were measured at both 25° C. and 37° C. The sensorgrams were fitted with two state binding model for both to derive kinetic parameters.

The target in assay [3] is T2, Human GPA33 (recombinant protein, …). The assay is described as follows: SPR (Biacore), human GPA33 immobilized on CM5 chip, two-state fit, kd1. Put shortly: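 The off-rate (kd1) was determined by surface plasmon resonance against immobilised recombinant human GPA33, using a two-state binding model fit. Antibodies were tested on a CM5 chip in a Biacore T100 at five concentrations, from 20 nM in 2-fold serial dilutions. The parent IgG1 was measured at 25° C, and the bispecific formats at 25° C and 37° C.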

Assay [4] concerns the target T1, Human GPA33 on GPA33+ colorectal cancer …. As to the kind of experiment: FACS titration on LS174T cells, geometric mean MFI [Cont.].
The target is the same in assay [5]. The assay is described as follows: FACS titration on Colo205 cells, geometric mean MFI.
Assay [6] shares this target. As to the kind of experiment: FACS binding to LS174T cells (GPA33+).
For assay [7] the target is unchanged. The assay is described as follows: FACS binding to SW1222 cells (GPA33+).
The target of assay [8] is T2, Human GPA33 (recombinant protein, …). As to the kind of experiment: SPR (Biacore), human GPA33 immobilised on the chip; KD relative to that of TC170. The gist of the method:
(§2)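 Recombinant human GPA33 (Novoprotein) was immobilised on a CM5 sensor chip, and antibodies were injected at five concentrations in 2-fold serial dilutions from 20 nM. Affinity (KD) was determined by surface plasmon resonance on a Biacore system, with kinetic fitting of the sensorgrams giving rate constants and KD. Every KD is reported as a ratio to the KD of a reference molecule.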

The target is the same in assay [9]. As to the kind of experiment: SPR (Biacore), human GPA33 immobilized on CM5 chip, two-state fit, ka1. The protocol:
as §1
Background: SPR reads the build-up and loss of mass on a sensor chip optically.

Assay [10] has as its target T1, Human GPA33 on GPA33+ colorectal cancer …. As to the kind of experiment: FACS titration on SW1222 cells, geometric mean MFI [Cont.].
For assay [11] the target is unchanged. As to the kind of experiment: flow cytometry, Colo 205 cells; Colo 205 cells. A general note: Flow cytometry measures light scatter and fluorescence of single cells or particles in a stream.
Assay [12] has the same target. The assay is described as follows: flow cytometry, SW 1222 cells.
For assay [13] the target is unchanged. The assay is described as follows: FACS binding to SW1222 cells (GPA33+); the text prints 1.78 nM for this pair.
Assay [14] shares this target. The assay is described as follows: FACS titration on SW1222 cells, geometric mean MFI (the text prints 1.78 nM and calls it IC50) [Cont.].
Assay [15] shares this target. As to the kind of experiment: flow cytometry, LS 174T cells.
Assay [16] has the same target. The assay is described as follows: FACS titration on SW1222 cells, geometric mean MFI (same value as in FIG. 4A; the text prints 1.78 nM) [contd.].
Assay [17] has the same target. As to the kind of experiment: FACS titration on SW1222 cells, geometric mean MFI [Cont.]. The source holds these as a separate data set.
Assay [18] concerns the target T2, Human GPA33 (recombinant protein, …). As to the kind of experiment: SPR (Biacore), human GPA33 immobilised on the chip; reference row. Put shortly: as §2
The target in assay [19] is T1, Human GPA33 on GPA33+ colorectal cancer …. The assay is described as follows: FACS titration on Colo205 cells, geometric mean MFI. The source holds these as a separate data set.
The target is the same in assay [20]. As to the kind of experiment: FACS titration on LS174T cells, geometric mean MFI [Cont.]. The source holds these as a separate data set.

B1: TC235 (bispecific antibody)
chain: EVQLVESGGGLVDPGGSLRLSCAASGFAFSTYDMSWVRQAPGKGLEWVSTISSGGSYTYYADSVKGRFTISRDNAANSLYLQMNSLRAEDTAVYYCAPTTVVPFAYWGQGTLVTVSAGGGGSGGGGSGGGGSGGGGSGGGGSGGGGSDIQMTQSPSSLSASVGDRVTITCKASQNVRTVVAWYQQKPGQAPKTLIYLASNRHTGVPSRFSGSGSGTEFTLTISNLQPEDFATYYCLQHWSYPLTFGSGTKLEVKRGGGGSGGGGSGGGGSGGGGSHVQLVESGGGLVQPGGSLRLSCAASGFSLTDYGVHWVRQAPGKGLEWLGVIWSGGGTAYNTALISRFTISRDNSKNTLYLQMNSLRAEDTAVYYCARRGSYPYNYFDAWGCGTLVTVSSGGGGSGGGGSGGGGSGGGGSGGGGSGGGGSQAVVTQEPSLTVSPGGTVTLTCGSSTGAVTASNYANWVQQKPGQCPRGLIGGHNNRPPGVPARFSGSLLGGKAALTLLGAQPEDEAEYYCALWYSDHWVIGGGTKLTVLGTPLGDTTHTSGKPLDGEYFTLQIRGRERFEMFRELNEALELKDAQAGKEPGGSGGAPHHHHHH
notes: pI variant of TC170 with a triple mutation in the GPA33 scFv; Carries the p53 SADA (tetramerization) domain; also called GPA33xDOTA SADA; pI variant of TC170
By EC50 is commonly meant the concentration that produces a half-maximal response. A word on the Kd: it is the constant that tells how readily two partners part at equilibrium. The koff is the first-order rate constant of dissociation. By kon is commonly meant the rate constant with which the complex forms. For the molecule B1, the EC50 in assay [1] turned out to be 0.53 nM; in assay [4], 0.22 nM; in assay [5], 0.53 nM; in assay [6], 0.22 nM; in [7], 1.03 nM; in assay [10], 1.03 nM. The “fold change of binding EC50 (relative to TC170, lower is better)” value was determined as 0.72 in assay [1], 0.71 in assay [6] and 0.62 in [7]. The Kd in assay [2] was found to be 0.0242 nM. The ka2 in assay [2] was found to be 0.00561 s⁻¹. Also, in assay [2], the kd2 is 0.00051 s⁻¹. In addition, the koff in assay [3] worked out at 0.000981 s⁻¹. In [8], the “Fold change of KD (relative to TC170, lower is better)” value came to 1.5. Moreover, the kon in assay [9] was found to be 3.38e+06 M⁻¹ s⁻¹.

B2: TC171 (bispecific antibody)
chain: DIQMTQSPSSLSASVGDRVTITCKASQNVRTVVAWYQQKPGKAPKTLIYLASNRHTGVPSRFSGSGSGTEFTLTISNLQPEDFATYYCLQHWSYPLTFGSGTKLEVKRGGGGSGGGGSGGGGSGGGGSGGGGSGGGGSEVQLVESGGGLVKPGGSLRLSCAASGFAFSTYDMSWVRQAPGKGLEWVSTISSGGSYTYYADSVKGRFTISRDNAKNSLYLQMNSLRAEDTAVYYCAPTTVVPFAYWGQGTLVTVSAGGGGSGGGGSGGGGSGGGGSHVQLVESGGGLVQPGGSLRLSCAASGFSLTDYGVHWVRQAPGKGLEWLGVIWSGGGTAYNTALISRFTISRDNSKNTLYLQMNSLRAEDTAVYYCARRGSYPYNYFDAWGCGTLVTVSSGGGGSGGGGSGGGGSGGGGSGGGGSGGGGSQAVVTQEPSLTVSPGGTVTLTCGSSTGAVTASNYANWVQQKPGQCPRGLIGGHNNRPPGVPARFSGSLLGGKAALTLLGAQPEDEAEYYCALWYSDHWVIGGGTKLTVLGTPLGDTTHTSGKPLDGEYFTLQIRGRERFEMFRELNEALELKDAQAGKEPGGSGGAPHHHHHH
notes: As TC170, with the other VH/VL orientation of the anti-GPA33 scFv; Carries the p53 SADA (tetramerization) domain; also called GPA33xDOTA SADA
As a reminder, the IC50 is the point on the concentration scale where inhibition reaches its midpoint. As for B2, the “fold change of binding EC50 (relative to TC170, lower is better)” value in [1] was 1.41; in [6], 1.81; in [7] it was 1.07. Moreover, the EC50 came out at 1.04 nM in assay [11], 1.77 nM in assay [13], 0.77 nM in assay [14] and 0.77 nM in assay [16]. The half-inhibitory concentration (IC50) turned out to be 1.78 nM in assay [12] and 0.56 nM in assay [15]. Also, the Kd in [2] worked out at 0.023 nM. Moreover, the ka2 in assay [2] amounted to 0.00663 s⁻¹. Further, the kd2 in assay [2] turned out to be 0.000628 s⁻¹. In [3], the koff turned out to be 0.000886 s⁻¹. Also, the “Fold change of KD (relative to TC170, lower is better)” value in assay [8] worked out at 1.5. In addition, the kon in assay [9] was found to be 3.34e+06 M⁻¹ s⁻¹.

B3: BC015 (G3A H1L4) (bispecific antibody, human IgG1, kappa, N297A)
heavy: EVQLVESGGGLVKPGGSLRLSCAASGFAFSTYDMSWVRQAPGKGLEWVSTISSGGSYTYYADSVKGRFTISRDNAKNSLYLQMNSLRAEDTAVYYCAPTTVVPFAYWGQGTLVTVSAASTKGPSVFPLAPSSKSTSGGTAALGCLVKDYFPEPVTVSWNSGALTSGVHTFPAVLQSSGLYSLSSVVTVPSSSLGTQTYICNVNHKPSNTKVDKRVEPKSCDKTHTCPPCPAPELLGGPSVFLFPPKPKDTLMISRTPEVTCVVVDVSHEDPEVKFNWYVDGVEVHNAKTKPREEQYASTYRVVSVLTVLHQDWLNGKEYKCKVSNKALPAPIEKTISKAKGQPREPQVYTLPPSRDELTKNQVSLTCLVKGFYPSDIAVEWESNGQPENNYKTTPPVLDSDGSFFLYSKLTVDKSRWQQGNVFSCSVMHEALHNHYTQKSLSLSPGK
light: DIQMTQSPSSLSASVGDRVTITCKASQNVRTVVAWYQQKPGKAPKTLIYLASNRHTGVPSRFSGSGSGTEFTLTISNLQPEDFATYYCLQHWSYPLTFGSGTKLEVKRTVAAPSVFIFPPSDEQLKSGTASVVCLLNNFYPREAKVQWKVDNALQSGNSQEKSVTEQDSKDSTYSLSSTLTLSKADYEKHKVYACEVTHQGLSSPVTKSFNRGECTSGGGGSGGGGSGGGGSHVQLVESGGGLVQPGGSLRLSCAASGFSLTDYGVHWVRQAPGKGLEWLGVIWSGGGTAYNTALISRFTISRDNSKNTLYLQMNSLRAEDTAVYYCARRGSYPYNYFDAWGCGTLVTVSSGGGGSGGGGSGGGGSGGGGSGGGGSGGGGSQAVVTQEPSLTVSPGGTVTLTCGSSTGAVTASNYANWVQQKPGQCPRGLIGGHNNRPPGVPARFSGSLLGGKAALTLLGAQPEDEAEYYCALWYSDHWVIGGGTKLTVLG
notes: GPA33xDOTA IgG-[L]-scFv with human IgG1 constant region carrying N297A and K322A; The anti-DOTA scFv is fused to the C-terminus of the light chain; also called BC177; GPA33 BsAb-IgG (BC177)
Take B3: the Kd in [2] was determined as 0.118 nM. Besides, the ka2 in [2] amounted to 0.00307 s⁻¹. In addition, the kd2 in [2] stood at 0.00177 s⁻¹. For the same molecule, the dissociation rate constant (koff) in [3] was 0.00141 s⁻¹. Besides, the concentration for a half-maximal effect (EC50) in [17] stood at 0.71 nM; in [19] it was 1.04 nM; in assay [20], 0.39 nM. For the same molecule, the “Fold change of KD (relative to BC015, lower is better)” value in assay [18] came out at 1. The on-rate (kon) in assay [9] turned out to be 4.36e+06 M⁻¹ s⁻¹.

The values are drawn from patent US20240026037A1 (Memorial Sloan Kettering, published 2024).
